Patent US20110014287A1 (ALLERGAN, published 2011)

Legend:
[1] = molecular target: T1, silk fibroin, substantially sericin-depleted, from Bombyx mori silk (Bombyx mori, UniProt P05790 22-5263; P21828 17-262, limits assumed); assay: HPLC of 23RGD extracted from lyophilized silk precipitate, against standard curve; AVHI formulation
T1 construct: also called silk fibroin hydrogel; silk gel
Protocol: (§1) The amount of 23RGD bound to silk precipitates was quantified by analyzing lyophilized samples. The 23RGD was removed by incubating the samples for 4 hours in a dissolving buffer, then centrifuging on an Eppendorf 5415C (Eppendorf North America Inc., Westbury, N.Y.) at 16,000 g (RCF) for 30 minutes and the supernatant collected. This supernatant was then centrifuged in identical fashion and the final supernatant collected for HPLC analysis using a PerkinElmer Series 200 (PerkinElmer, Waltham, Mass.). The 23RGD peak areas from each curve were compared against a standard curve. 1-Way ANOVA was used to test for significant differences caused by changing silk concentration, 23RGD concentration, and accelerant volume. A Student's t-test was used to test the significance of differences resulting from altered ethanol concentrations.

[2] = molecular target: T1, silk fibroin, substantially …; assay: HPLC of 23RGD extracted from lyophilized silk precipitate, against standard curve; BASE formulation
Protocol: as §1

[3] = molecular target: T1, silk fibroin, substantially …; assay: HPLC of 23RGD extracted from lyophilized silk precipitate, against standard curve; formulation labelled RLO in this sentence
Protocol: as §1

[4] = molecular target: T1, silk fibroin, substantially …; assay: HPLC of 23RGD extracted from lyophilized silk precipitate, against standard curve; AVLO formulation
Protocol: as §1

[5] = molecular target: T1, silk fibroin, substantially …; assay: HPLC of 23RGD extracted from lyophilized silk precipitate, against standard curve; SCLO formulation
Protocol: as §1

[6] = molecular target: T1, silk fibroin, substantially …; assay: HPLC of 23RGD extracted from rinsed silk hydrogel, peak area against a 23RGD standard curve
Source text: 23RGD-infused gels were studied to quantify the amount of 23RGD bound to the silk-hydrogel device as well as the quantity of free 23RGD which might be rinsed free of the device under relevant conditions. Briefly, samples of 23RGD-infused gel were cast and rinsed according to the methods above, with samples of rinse buffer being collected from each rinse for subsequent analysis by HPLC. Additionally, subsequent to the last rinse, the gel samples were mechanically pulverized by means of a stainless steel stirring rod and the adsorbed 23RGD removed by incubation for 4 hours in a dissolving buffer. This mixture of gel and solvent was then centrifuged on an Eppendorf 5415C at 16,000 g RCF for 30 minutes. The supernatant was collected and centrifuged another 30 minutes at 16,000 g RCF after which time the supernatant was collected in a sample vial for HPLC analysis. Samples of rinse buffer from the first and last rinse were centrifuged in the same fashion after being diluted with the same solvent the gel was extracted with in a volumetric ratio of 1 part rinse buffer to 4 parts solvent. To ensure 23RGD-hydrogel device rinse-exposed surface area was not a limiting factor, the same rinse and extraction process was performed upon devices pulverized after gelation and before rinsing.

[7] = molecular target: T1, silk fibroin, substantially …; assay: HPLC of 23RGD extracted from lyophilized silk precipitate, against standard curve; RHI formulation
Protocol: as §1

[8] = molecular target: T1, silk fibroin, substantially …; assay: HPLC of 23RGD extracted from lyophilized silk precipitate, against standard curve; formulation labelled RMED in this sentence
Protocol: as §1

[9] = molecular target: T1, silk fibroin, substantially …; assay: HPLC of 23RGD extracted from silk precipitates, across formulations
Protocol: as §1

[10] = molecular target: T1, silk fibroin, substantially …; assay: HPLC of 23RGD extracted from lyophilized silk precipitate, against standard curve; SCVLO formulation
Protocol: as §1

## GRGDIPASSKGGGGSRLLLLLLR (not fully specified; C-terminal -NH2 as printed (HOOC-GRGDIPASSKG4SRL6R-NH2), also called amphiphilic peptide) [23RGD peptide (HOOC-GRGDIPASSKG4SRL6R-NH2)]
[1]
  23RGD:silk ratio bound to the precipitate: 10.5 23RGD:silk ratio
[2]
  23RGD:silk ratio bound to the precipitate: 8.7 23RGD:silk ratio
[3]
  23RGD:silk ratio bound to the precipitate: 1.1 23RGD:silk ratio
[4]
  23RGD:silk ratio bound to the precipitate: 5.2 23RGD:silk ratio
[5]
  23RGD:silk ratio bound to the precipitate: 9.9 23RGD:silk ratio
[6]
  23RGD:silk ratio bound to the gel: 3.35 23RGD:silk ratio
[7]
  23RGD:silk ratio bound to the precipitate: 10.7 23RGD:silk ratio
[8]
  23RGD:silk ratio bound to the precipitate: 6.95 23RGD:silk ratio
[9]
  apparent saturation 23RGD:silk ratio: ~10 23RGD:silk ratio
[10]
  23RGD:silk ratio bound to the precipitate: 11 23RGD:silk ratio
